Key:
[1] = target: the molecule itself; assay: dynamic light scattering; ~0.2 mg/ml, room temperature, size distribution after SEC purification
[2] = target: the molecule itself; assay: crystal structure; His-MBP-ApoE4M ~8 mg/ml, hanging drop vapour diffusion; four crystals in two space groups (P212121, P3121); dimeric unit of two NTDs (chains A and B) from crystal packing contacts

B1: APOE3M-AP (domain or fragment, human, UniProt P02649 42-317, looked up)
chain: QRWELALGRFWDYLRWVQTLSEQVQEELLSSQVTQELRALMDETMKELKAYKSELEEQLTPVAEETRARLSKELQAAQARLGADMEDVCGRLVQYRGEVQAMLGQSTEELRVRLASHLRKLRKRLLRDADDLQKRLAVYQAGAREGAERGLSAIRERLGPLVEQGRVRAATVGSLAGQPLQERAQAWGERLRARMEEMGSRTRDRLDEVKEQVAEVRAKLEEQAQQIRLQAEAAQARLKSRFEPLAEDMQRQWAGQVEKVQAAEGTSAAPVPSDNH
notes: apolipoprotein E, isoform ApoE3, human, residues 1-23 (helices N1 and N2) deleted, with the five monomerizing mutations; Truncated variants were cloned into NdeI/BamHI of pET-21b; also called ApoEM-AP; aggregation-prone ApoEM; source: E. coli BL21(DE3), purified (Ni-NTA, 3C protease cleavage, SEC); not shown: His, N-terminal, cleaved; thioredoxin, N-terminal, cleaved
binding result [1]: binds

B2: APOE4M-AP (domain or fragment, human, UniProt P02649 42-317, looked up)
chain: QRWELALGRFWDYLRWVQTLSEQVQEELLSSQVTQELRALMDETMKELKAYKSELEEQLTPVAEETRARLSKELQAAQARLGADMEDVRGRLVQYRGEVQAMLGQSTEELRVRLASHLRKLRKRLLRDADDLQKRLAVYQAGAREGAERGLSAIRERLGPLVEQGRVRAATVGSLAGQPLQERAQAWGERLRARMEEMGSRTRDRLDEVKEQVAEVRAKLEEQAQQIRLQAEAAQARLKSRFEPLAEDMQRQWAGQVEKVQAAEGTSAAPVPSDNH
notes: apolipoprotein E, isoform ApoE4, human, residues 1-23 (helices N1 and N2) deleted, with the five monomerizing mutations; Truncated variants were cloned into NdeI/BamHI of pET-21b; also called ApoEM-AP; aggregation-prone ApoEM; source: E. coli BL21(DE3), purified (Ni-NTA, 3C protease cleavage, SEC); not shown: His, N-terminal, cleaved; thioredoxin, N-terminal, cleaved
binding result [1]: binds

B3: ApoE4 N-terminal domain (NTD) as seen in the crystals grown from His-MBP-ApoE4M (domain or fragment, human, UniProt P02649 40-183, looked up)
chain: SGQRWELALGRFWDYLRWVQTLSEQVQEELLSSQVTQELRALMDETMKELKAYKSELEEQLTPVAEETRARLSKELQAAQARLGADMEDVRGRLVQYRGEVQAMLGQSTEELRVRLASHLRKLRKRLLRDADDLQKRLAVYQAG
notes: apolipoprotein E, isoform ApoE4 (R112/R158), human; only residues ~22-165 (NTD) were obtained in the structures; the five mutations lie outside that range; also called ApoE4 NTD; source: E. coli BL21(DE3), purified (Ni-NTA, SEC; no cleavage step)
binding result [2]: binds

From paper PMC10245438, “Domino-like effect of C112R mutation on ApoE4 aggregation and its reduction by Alzheimer’s Disease drug candidate” (Molecular Neurodegeneration, 2023)
